Laboratory results: PMC3185932, “A truncated form of CD9-partner 1 (CD9P-1), GS-168AT2, potently inhibits in vivo tumour-induced angiogenesis and tumour growth” (British Journal of Cancer, 2011)

Target: the molecule itself
Assay: SDS-PAGE (Coomassie blue) and Western blot of the purified protein; purified GS-168AT2; 36 kDa band seen by Coomassie blue and recognised by 229T mAb

B1: GS-168AT2, truncated form of CD9 partner-1 (CD9P-1), amino acid 724-832 (domain or fragment, human, UniProt Q9P2B2 724-832, looked up)
chain: DMAFDVSWFAVHSFGLDKAPVLLSSLDRKGIVTTSRRDWKSDLSLERVSVLEFLLQVHGSEDQDFGNYYCSVTPWVKSPTGSWQKEAEIHSKPVFITVKMDVLNAFKYP
notes: CD9 partner-1 (CD9P-1/FPRP/EWI-F), human, amino acid 724-832: the unglycosylated extracellular portion next to the transmembrane domain; cDNA from RNA of human endothelial cells; no removal of the tag is described. pET-30 EK/LIC is known to add His and S tags at the N-terminus (surmised); also called truncated CD9P-1; source: E. coli BL21(DE3)pLys, purified from the insoluble fraction in urea …
Question: Does B1 bind?
Answer: Result: binds
